According to article PMC3245944 (Nucleic Acids Research, 2011):
Read-outs that look alike come from different tables or passages of the source.

Tests used:
Assay in all cases: pull-down
[1] = target: T1, GST-tagged Mgs1 (S. cerevisiae, UniProt P40151 1-587)
T1 sequence: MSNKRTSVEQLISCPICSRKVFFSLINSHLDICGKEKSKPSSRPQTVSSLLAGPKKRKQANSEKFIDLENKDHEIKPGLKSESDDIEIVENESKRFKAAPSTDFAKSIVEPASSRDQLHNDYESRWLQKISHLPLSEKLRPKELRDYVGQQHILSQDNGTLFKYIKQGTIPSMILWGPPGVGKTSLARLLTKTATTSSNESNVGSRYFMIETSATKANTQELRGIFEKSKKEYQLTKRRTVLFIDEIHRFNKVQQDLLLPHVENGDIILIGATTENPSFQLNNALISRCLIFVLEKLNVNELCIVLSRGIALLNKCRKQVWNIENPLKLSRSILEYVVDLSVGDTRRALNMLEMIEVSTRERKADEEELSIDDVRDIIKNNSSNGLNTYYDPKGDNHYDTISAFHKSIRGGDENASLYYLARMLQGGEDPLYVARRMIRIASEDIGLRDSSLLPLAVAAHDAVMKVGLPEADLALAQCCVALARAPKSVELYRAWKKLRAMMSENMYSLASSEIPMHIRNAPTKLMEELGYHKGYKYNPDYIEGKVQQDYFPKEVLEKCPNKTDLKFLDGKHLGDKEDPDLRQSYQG

[2] = target: T2, GST-tagged Mgs1* (D31A) (S. cerevisiae, UniProt P40151 1-587, D31A)
T2 sequence: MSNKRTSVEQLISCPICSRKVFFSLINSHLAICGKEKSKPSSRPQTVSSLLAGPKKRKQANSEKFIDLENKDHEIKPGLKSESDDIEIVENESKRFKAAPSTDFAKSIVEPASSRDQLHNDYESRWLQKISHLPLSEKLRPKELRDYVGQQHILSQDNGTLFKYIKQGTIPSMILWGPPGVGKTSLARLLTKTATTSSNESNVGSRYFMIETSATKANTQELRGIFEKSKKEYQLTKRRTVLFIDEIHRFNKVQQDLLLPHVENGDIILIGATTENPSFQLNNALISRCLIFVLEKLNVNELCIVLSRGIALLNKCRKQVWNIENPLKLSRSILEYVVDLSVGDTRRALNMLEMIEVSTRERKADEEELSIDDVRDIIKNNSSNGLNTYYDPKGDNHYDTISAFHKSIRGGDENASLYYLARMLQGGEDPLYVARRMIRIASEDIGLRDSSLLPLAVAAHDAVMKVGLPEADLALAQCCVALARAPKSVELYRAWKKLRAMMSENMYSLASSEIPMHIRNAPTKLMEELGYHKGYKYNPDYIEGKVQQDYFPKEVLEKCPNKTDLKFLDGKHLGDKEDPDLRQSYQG

[3] = target: T1, GST-tagged Mgs1; remark: listed apart in the source
[4] = target: T2, GST-tagged Mgs1* (D31A); remark: listed apart in the source

Row | Binder | binding result [1] | binding result [2] | binding result [3] | binding result [4]
1 | His6-tagged PCNA (natural protein) MLEAKFEEASLFKRIIDGFKDCVQLVNFQCKEDGIIAQAVDDSRVLLVSLEIGVEAFQEYRCDHPVTLGMDLTSLSKILRCGNNTDTLTLIADNTPDSIILLFEDTKKDRIAEYSLKLMDIDADFLKIEELQYDSTLSLPSSEFSKIVRDLSQLSDSINIMITKETIKFVADGDIGSGSVIIKPFVDMEHPETSIKLEMDQPVDLTFGAKYLLDIIKGSSLSDRVGIRLSSEAPALFQFDLKSGFLQFFLAPKFNDEE | binds | binds |  | 
2 | untagged PCNA (unmodified) (natural protein) MLEAKFEEASLFKRIIDGFKDCVQLVNFQCKEDGIIAQAVDDSRVLLVSLEIGVEAFQEYRCDHPVTLGMDLTSLSKILRCGNNTDTLTLIADNTPDSIILLFEDTKKDRIAEYSLKLMDIDADFLKIEELQYDSTLSLPSSEFSKIVRDLSQLSDSINIMITKETIKFVADGDIGSGSVIIKPFVDMEHPETSIKLEMDQPVDLTFGAKYLLDIIKGSSLSDRVGIRLSSEAPALFQFDLKSGFLQFFLAPKFNDEE |  |  | binds | binds
